Test results: paper PMC5820281

Tests used:
[1] = target: GST-Ro52-Δ2 (C-terminal fragment of Ro52/TRIM21 fused to glutathione S-transferase) (UniProt P19474); experiment: luciferase pull-down (bead-immobilized GST fusion protein, luciferase-tagged Fc-IgG); conditions: read off a plot
[2] = target: protein A/G (Ultralink protein A/G beads); experiment: luciferase pull-down (protein A/G beads, luciferase-tagged Fc-IgG); conditions: read off a plot
[3] = target: Renilla luciferase-IgG1 Fc fusion protein (Fc region of IgG1, amino acids 233–449); experiment: luciferase pull-down (bead-immobilized GST fusion protein, luciferase-tagged Fc-IgG); conditions: parent: est. 240000; read off a plot

Sequence of UniProt P19474 (P19474 277-475, stated change not applied): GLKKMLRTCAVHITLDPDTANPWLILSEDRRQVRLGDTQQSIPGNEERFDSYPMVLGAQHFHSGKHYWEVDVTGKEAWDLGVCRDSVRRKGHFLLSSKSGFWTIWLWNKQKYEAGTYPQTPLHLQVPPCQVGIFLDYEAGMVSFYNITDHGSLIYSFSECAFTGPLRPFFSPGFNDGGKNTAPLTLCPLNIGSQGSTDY

Row | response [3] [LU] | Substance | response [1] [LU] | response [2] [LU]
1 |  | Renilla luciferase-IgG1 Fc fusion protein (Fc region of IgG1, amino acids 233–449) H435del; N436del; H437del | 4200 | 3600
2 | 3900 | GST-Ro52-Δ2 (C-terminal fragment of Ro52/TRIM21 fused to glutathione S-transferase) (from UniProt P19474) D355A |  | 
